According to US11242370B2, “Neuregulin-4 compounds and methods of use” (Eli Lilly and Company, priority 2019, dated 2022):
Residue numbers refer to the chain shown, from its start. Names may count otherwise. Like-named read-outs stand apart in the source and are kept apart here. Bridges are numbered along the chain shown (N, C = ends). Where no end group is shown, it is not given here.

Tests used:
in vivo [1] = conditions: rat, plasma, sc
Description: (§2) On Day 4, blood samples are collected to determine plasma concentration and the infusion pump is removed.

[2] = Day 4 (96 hours), steady state
Description: as §2

[3] = Plasma pharmacokinetics in monkeys (toxicology studies); conditions: cynomolgus monkey, in vivo, sc
Description: (§1) Example 11 is administered in a single 3 mg/kg dose to male and female monkeys by SC bolus injection.

in vivo [4] = conditions: rat, plasma, sc, 2.18 mg/kg/day
Description: At the end of designated infusion phase, blood samples are collected to determine plasma concentration and the infusion pump is removed.

[5] = Plasma pharmacokinetics in rats (toxicology studies); conditions: rats
Description: as §1

human HER2 and HER4 = biological target: T1, human HER2 and HER4 (Homo sapiens, UniProt Q15303); assay: Screening by human HER2-HER4 mediated ERK 1/2 phosphorylation in CHO-hHER2-hHER4 (clone 1H6) cells; format: cell-based; conditions: Table 5; Fc variants as 293F supernatants; Examples average of two replicates ± standard deviation
T1 construct: expressed in transfected cells
Description: A cell based assay utilizing CHO-K1 cells overexpressing human or rat HER receptors is used to determine activity of NRG4 compounds. CHO-K1 cells (ATCC) are grown in DMEM-F12 3:1 with 5% FBS with 20 mM HEPES, 40 μg/mL L-Proline, lx antibiotics and were split 1:5 every 2-3 days with TripLE Express (Gibco). Cells are transfected with plasmid DNA encoding HER receptors in pairs (hHER2-3, hHER2-4, rHER2-3 and rHER2-4) with Fugene 6 (Promega) according to the manufacturer's instructions. […] Transfected cells are selected with Puromycin (12 ug/ml) and Hygromycin (1 mg/ml) for 3-4 weeks and clonal lines are obtained by limited dilution cloning into 96 well plates. Clonal lines are selected by appropriate gene expression of HER2, HER3 or HER4 by Taqman method. Lines with appropriate receptor expression are confirmed by NRG1 induced phospho-ERK 1/2 responses. Clones are grown up, harvested, aliquoted into cryovials and then frozen under liquid nitrogen for long-term storage.
A phospho-ERK1/2 activity assay is used to determine potencies of NRG4 compounds. The potency of Examples 1-8 and 10 as compared to WT human NRG1 and/or human NRG4 are analyzed in studies measuring stimulation of human HER2-HER4 mediated ERK 1/2 phosphorylation. This assay comprises a CHO-K1 stable line expressing human HER2 and HER4. CHO-hHER2-hHER4 (clone 1H6) cells are routinely cultured in DMEM: F12(3:1), 5% FBS, 40 μg/mL L-Proline, 10 μg/mL puromycin and 1 mg/mL hygromycin at 37° C., 5% CO2. Cells are washed twice with 1×PBS, dissociated with 0.05% trypsin/[…] EDTA and collected by centrifugation at 300×g for 10 m. Cells are re-suspended in maintenance media. 20,000 cells/well, in 30 μL, are seeded into 384 well Poly-D-Lysine cell culture plates (Greiner, Cat No. 781946). Plates are covered with a manufacturer's lid and moved to a 37° C. tissue culture incubator at 5% CO^2, 80%+ humidity and allowed to adhere. After 24 h, media are removed from the plates and replaced with 30 μL serum-free starvation media (Low glucose DMEM with 0.1% BSA) using a Biomek FX liquid handler. Plates are returned to the incubator for 24 h.
hFcNRG4 variants, transiently expressed as 293F supernatants, are prepared in starvation media in a clear 384W plate (Greiner, cat no. 781185) as a 4pt 1:8 serial dilution (dose range averaged between 250 pM to 140000 pM). Media are removed from the cell culture plates and the 30 uL/well prepared variants are stamped into the plates using a Biomek FX liquid handler. Plates are sealed with a foil seal and stimulated for 15 minutes at room temperature on an orbital shaker. Cells are then washed once with 50 uL cold PBS. 30 uL lysis buffer is added to the cells and oscillated for 10 m at RT on an orbital shaker.
Detection of phosphorylation of ERR 1/2 is performed with either an AlphaScreen SureFire phospho-ERK1/2 kit (T202/Y204) (Perkin Elmer, catalog no. TGRES) or an AlphaLISA® SureFire® Ultra™ p ERK1/2 assay kit together with the AlphaScreen Protein. A IgG Detection Kit (Protein-A) (PerkinElmer, catalogue no. 6760617). After lysis of the CHO-K1 cells. 4 μL lysate is transferred to a 384W Alpha Proxiplate (Perkin Elmer, cat no, 6008280) with a 384W Biomek FX. 4 uL positive and negative lysates (Perkin Elmer, TGRES-L) are added to available wells as controls. 5 uL/well acceptor mix (containing anti-phoso-Thr202/Tyr204 antibodies and Protein A conjugated acceptor beads) is added to the plate with a Forumlatrix Mantis. The plate is sealed, spun down for 1 min at 300×g and incubated for 2 hr at room temperature on an orbital shaker. 2 μL/well donor mix (containing strepavidin coated donor beads and biotinylated antibodies to a distal ERK1/2 epitope) is dispensed by Mantis. The plate is sealed, spun down for 1 min at 300×g and incubated for 2 hr at room temperature on an orbital shaker before reading on the Perkin Elmer Envision 2103 Multilabel Reader (HIS Alpha mode, excitation time: 40 ms, total measurement time: 130 ms). […]

[6] = biological target: T2, HER4 receptor extracellular domain (ECD) (Homo sapiens, UniProt Q15303); assay: HER4/NRG-Fc binding assay (ELISA) for screening NRG4 variants
T2 construct: C-terminal His-tagged HER4 receptor extracellular domain (ECD) construct
T2 sequence (Q15303 26-651 limits assumed): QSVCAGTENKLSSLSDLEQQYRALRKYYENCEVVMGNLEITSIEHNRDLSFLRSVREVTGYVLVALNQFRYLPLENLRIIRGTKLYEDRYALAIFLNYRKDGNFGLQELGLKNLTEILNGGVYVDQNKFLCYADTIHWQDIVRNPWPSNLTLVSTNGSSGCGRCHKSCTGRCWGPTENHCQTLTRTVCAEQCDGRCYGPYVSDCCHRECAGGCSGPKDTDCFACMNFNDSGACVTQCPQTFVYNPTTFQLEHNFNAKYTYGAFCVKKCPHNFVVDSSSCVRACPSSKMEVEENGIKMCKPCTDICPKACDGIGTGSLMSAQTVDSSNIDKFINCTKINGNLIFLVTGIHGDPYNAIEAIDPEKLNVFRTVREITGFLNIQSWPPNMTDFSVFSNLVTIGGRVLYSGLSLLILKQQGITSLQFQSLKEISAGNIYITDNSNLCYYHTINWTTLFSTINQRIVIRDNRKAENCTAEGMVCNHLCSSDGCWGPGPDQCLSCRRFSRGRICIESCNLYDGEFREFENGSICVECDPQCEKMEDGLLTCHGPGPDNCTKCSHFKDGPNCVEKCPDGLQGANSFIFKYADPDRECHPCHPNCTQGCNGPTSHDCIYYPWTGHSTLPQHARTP
Description: A binding assay is utilized to perform high-throughput screening of NRG4 variant Fc fusion proteins to HER4 receptor, to identify affinity-driven variants with the potential to increase receptor activation and signaling. ELISA plates are coated with an anti-His tag antibody at 2 μg/ml in PBS to facilitate the standardized capture of a C-terminal His-tagged HER4 receptor extracellular domain (ECD) construct after blocking the plate with 1% BSA/PBS/0.1% Tween 20 (HER4 ECD at 5 μg/ml). Saturating amounts of unpurified NRG4-Fc variants in expression media (Starting at 10 μg/ml with serial dilutions in 1% BSA/PBS/0.1% Tween 20) are incubated with the captured receptor for 1 hour. After washing, bound variant NRG4-Fc is detected colorimetrically with an anti-human Fc-specific alkaline phosphatase secondary detection reagent to quantitate binding. Incubation times of variant binding to receptor or durations of the subsequent wash steps are varied to further identify binding variants driven by affinity on-rate and off-rate, respectively.

H-GGGGSGHEEPCGPSHKSFCLNGGLCYQIPTIPSPFCRCVENYTGARCEKVFL (disulfide 11-25, 19-36, 38-47 (inferred)) [Example 9]
level at time molar at 96 h (in vivo [1]; 0.22 mg/kg/day): 2.59 nM
level at time molar at 96 h (in vivo [1]; 0.73 mg/kg/day): 9.94 nM
Exposure in rat plasma, Mean ([2]; 2.18 mg/kg/day SC infusion): 29.62 nM
Exposure in rat plasma, Mean ([2]; 7.28 mg/kg/day SC infusion): 72.24 nM
half-life [3]: < 5 h
level at time molar at 48 h (in vivo [4]): 40.1 nM
level at time molar at 72 h (in vivo [4]): 47.3 nM
level at time molar at 96 h (in vivo [4]): 31.4 nM
half-life after SC administration [5]: less than an hour

B1: Example 1: NRG4 D1G, (GGGGS)3 linker, SEQ ID NO: 10, fused to IgG Fc dimer SEQ ID NO: 6 and 7 (protein)
chain 1: GGGGSGGGGSGGGGSGHEEPCGPSHKSFCLNGGLCYVIPTIPSPFCRCVENYTGARCEEVFL
chain 2: ECPPCPAPPVAGPSVFLFPPKPKDTLMISRTPEVTCVVVDVSHEDPEVQFNWYVDGVEVHNAKTKPREEQFNSTFRVVSVLTVVHQDWLNGKEYKCKVSNKGLPAPIEKTISKTKGQPREPQVYTLPPSREEMTKNQVSLWCLVKGFYPSDIAVEWESNGQPENNYKTTPPVLDSDGSFFLYSKLTVDKSRWQQGNVFSCSVMHEALHNHYTQKSLSLSPG
chain 3: B1 chain 2 with W141S, L143A, Y182V
EC50 (human HER2 and HER4): 0.77 ± 0.16 nM
O.D. 405, binding to HER4 extracellular domain ([6]; Dose # 1: Example 1 10.65, WT NRG1 10, WT NRG4 17 μg/mL): 1.485
O.D. 405, binding to HER4 extracellular domain ([6]; Dose # 2: Example 1 5.325, WT NRG1 5, WT NRG4 8.5 μg/mL): 1.438
O.D. 405, binding to HER4 extracellular domain ([6]; Dose # 3: Example 1 2.6625, WT NRG1 2.5, WT NRG4 4.25 μg/mL): 1.4
O.D. 405, binding to HER4 extracellular domain ([6]; Dose # 4: Example 1 1.33125, WT NRG1 1.25, WT NRG4 2.125 μg/mL): 1.332
O.D. 405, binding to HER4 extracellular domain ([6]; Dose # 5: Example 1 0.665625, WT NRG1 0.625, WT NRG4 1.0625 μg/mL): 1.217
O.D. 405, binding to HER4 extracellular domain ([6]; Dose # 6: Example 1 0.332813, WT NRG1 0.3125, WT NRG4 0.53125 μg/mL): 1.081
O.D. 405, binding to HER4 extracellular domain ([6]; Dose # 7: Example 1 0.166406, WT NRG1 0.15625, WT NRG4 0.265625 μg/mL): 0.865
O.D. 405, binding to HER4 extracellular domain ([6]; Dose # 8: Example 1 0.083203, WT NRG1 0.078125, WT NRG4 0.132813 μg/mL): 0.607
O.D. 405, binding to HER4 extracellular domain ([6]; Dose # 9: Example 1 0.041602, WT NRG1 0.039063, WT NRG4 0.066406 μg/mL): 0.404
O.D. 405, binding to HER4 extracellular domain ([6]; Dose # 10: Example 1 0.020801, WT NRG1 0.019531, WT NRG4 0.033203 μg/mL): 0.235
O.D. 405, binding to HER4 extracellular domain ([6]; Dose # 11: Example 1 0.0104, WT NRG1 0.009766, WT NRG4 0.016602 μg/mL): 0.136
O.D. 405, binding to HER4 extracellular domain ([6]; Dose # 12: Example 1 0.0052, WT NRG1 0.004883, WT NRG4 0.008301 μg/mL): 0.096
